Drawing on article PMC6625990, “Structural underpinnings of Ric8A function as a G-protein α-subunit chaperone and guanine-nucleotide exchange factor” (Nature Communications, 2019), this text covers Kd for two variants.

A value given as a limit tells only on which side of the number the result lay.

The chains are these.
B1: bovine Ric8A1–492 [bovine] / Gαt333–350 [modified: biotin on the N-terminus (in the BLI assays); biotin on the N-terminus (in the BLI assays)] [not stated] (parent)
chain 1: MEPRAVADALETGEEDVVMEALRAYNRENSQSFTFDDAQQEDRKRLAKLLVSVLEQGLPPSRRVIWLQSIRILSRDRSCLDSFTSRRSLQALACYAGISASQGSVPEPLNMDVVLESLKCLCNLVLSSPVAQALAAEAGLVVRLAERVGLCRQSSFPHDVQFFDLRLLFLLTALRTDVRQQLFQELQGVRLLTRALELTLGMTEGERHPELLPPQETERAMEILKVLFNITFDSIKREVDEEDAALYRHLGTLLRHCVMLAAAGDRTEELHGHAVNLLGNLPVKCLDVLLTLEPHEGSLEFLGVNMDVIRVLLSFMEKRLHQTHRLKESVAPVLSVLTECARMHRPARKFLKAQVLPPLRDVRTRPEVGELLRNKLVRLMTHLDTDVKRVAAEFLFVLCSESVPRFIKYTGYGNAAGLLAARGLMAGGRPEGQYSEDEDTDTDEYKEAKASINPVTGRVEEKPPNPMEGMTEEQKEHEAMKLVNMFDKLSRH
chain 2: DAVTDIIIKENLKDCGLF

The variants in assay [1] derive from B1. Briefly: BLI (steady-state). As to conditions: with Gαt333–350 [modified: biotin on the N-terminus (in the BLI assays).
Variants of B1 are the subject of assay [2]. Briefly: BLI (steady-state binding curve). To be noted: with Gαt333–350 [modified: biotin on the N-terminus (in the BLI assays), biotinylated Gαt333–350 coupled to a streptavidin biosensor.

The Kd is the free concentration of one partner at which half of the binding sites on the other are occupied at equilibrium, for simple one-to-one binding. For chain 1 MEPRAVADALETGEEDVVMEALRAYNRENSQSFTFDDAQQEDRKRLAKLLVSVLEQGLPPSRRVIWLQSIRILSRDRSCLDSFTSRRSLQALACYAGISASQGSVPEPLNMDVVLESLKCLCNLVLSSPVAQALAAEAGLVVRLAERVGLCRQSSFPHDVQFFDLRLLRLLTALRTDVRQQLFQELQGVRLLTRALELTLGMTEGERHPELLPPQETERAMEILKVLFNITFDSIKREVDEEDAALYRHLGTLLRHCVMLAAAGDRTEELHGHAVNLLGNLPVKCLDVLLTLEPHEGSLEFLGVNMDVIRVLLSFMEKRLHQTHRLKESVAPVLSVLTECARMHRPARKFLKAQVLPPLRDVRTRPEVGELLRNKLVRLMTHLDTDVKRVAAEFLFVLCSESVPRFIKYTGYGNAAGLLAARGLMAGGRPEGQYSEDEDTDTDEYKEAKASINPVTGRVEEKPPNPMEGMTEEQKEHEAMKLVNMFDKLSRH [chain 1 F169R], the Kd in assay [1] is 1.8 µM; in assay [2], 1.9 µM.
On the same counts, the results for chain 1 MEPRAVADALETGEEDVVMEALRAYNRENSQSFTFDDAQQEDRKRLAKLLVSVLEQGLPPSRRVIWLQSIRILSRDRSCLDSFTSRRSLQALACYAGISASQGSVPEPLNMDVVLESLKCLCNLVLSSPVAQALAAEAGLVVRLAERVGLCRQSSFPHDVQFFDLRLLFLLTWLRTDVRQQLFQELQGVRLLTRALELTLGMTEGERHPELLPPQETERAMEILKVLFNITFDSIKREVDEEDAALYRHLGTLLRHCVMLAAAGDRTEELHGHAVNLLGNLPVKCLDVLLTLEPHEGSLEFLGVNMDVIRVLLSFMEKRLHQTHRLKESVAPVLSVLTECARMHRPARKFLKAQVLPPLRDVRTRPEVGELLRNKLVRLMTHLDTDVKRVAAEFLFVLCSESVPRFIKYTGYGNAAGLLAARGLMAGGRPEGQYSEDEDTDTDEYKEAKASINPVTGRVEEKPPNPMEGMTEEQKEHEAMKLVNMFDKLSRH [chain 1 A173W] are more than 10 µM and more than 10 µM.
